Results reported in PMC5762779, “The peroxisomal AAA-ATPase Pex1/Pex6 unfolds substrates by processive threading” (Nature Communications, 2018).

Molecular target: T1, Pex1-WB2/Pex6-WB2 mutant hexamer (Pex1-E798Q-Strep/His-Pex6-E832Q) (S. cerevisiae, UniProt P24004 1-1043; P33760 1-1030, E798Q | E832Q)
T1 construct: Pex1, S. cerevisiae W303, Walker B D2 mutant; Pex6, S. cerevisiae W303, Walker B D2 mutant; also called Pex1-WB/Pex6-WB; ATPase-deficient Pex1/Pex6; source: E. coli BL21*, co-expressed, purified (Ni-NTA, Streptactin); copies: 3 + 3
T1 sequence (P24004 whole entry E798Q, one chain of several): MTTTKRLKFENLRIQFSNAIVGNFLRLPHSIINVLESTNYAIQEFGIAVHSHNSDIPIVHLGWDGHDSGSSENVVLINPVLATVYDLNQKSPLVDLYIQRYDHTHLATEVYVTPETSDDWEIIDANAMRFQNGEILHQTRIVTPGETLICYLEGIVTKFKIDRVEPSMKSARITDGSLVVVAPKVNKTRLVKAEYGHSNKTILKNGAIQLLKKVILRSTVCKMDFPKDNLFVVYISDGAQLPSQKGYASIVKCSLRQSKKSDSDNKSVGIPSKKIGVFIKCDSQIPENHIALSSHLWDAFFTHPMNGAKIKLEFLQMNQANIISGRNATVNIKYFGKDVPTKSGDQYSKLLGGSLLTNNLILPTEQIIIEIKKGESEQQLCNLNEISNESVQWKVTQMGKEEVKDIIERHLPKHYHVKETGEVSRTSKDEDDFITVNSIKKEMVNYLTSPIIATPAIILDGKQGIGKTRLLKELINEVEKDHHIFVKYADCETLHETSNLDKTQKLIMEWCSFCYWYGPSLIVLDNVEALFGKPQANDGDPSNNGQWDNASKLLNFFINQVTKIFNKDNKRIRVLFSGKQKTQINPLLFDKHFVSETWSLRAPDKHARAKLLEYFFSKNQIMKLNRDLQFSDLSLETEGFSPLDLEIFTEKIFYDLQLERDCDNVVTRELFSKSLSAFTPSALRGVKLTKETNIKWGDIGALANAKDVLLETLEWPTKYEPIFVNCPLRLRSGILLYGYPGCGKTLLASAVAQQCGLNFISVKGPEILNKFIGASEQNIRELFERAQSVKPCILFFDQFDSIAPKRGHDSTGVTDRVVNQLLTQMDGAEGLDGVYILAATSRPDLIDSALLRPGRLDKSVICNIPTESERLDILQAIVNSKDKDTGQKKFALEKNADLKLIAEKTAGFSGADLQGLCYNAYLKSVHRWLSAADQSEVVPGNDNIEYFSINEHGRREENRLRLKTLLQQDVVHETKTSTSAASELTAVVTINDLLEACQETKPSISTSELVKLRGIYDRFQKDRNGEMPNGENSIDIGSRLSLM
Assay: pull-down; MBP-Pex15 1-309 or MBP-Pex15 1-253 with Pex1-WB2/Pex6-WB2; maltose elution, SDS-PAGE
Details: both partners purified

Row | binding result | Binder
1 | binds | MBP-Pex15 1-309 (domain or fragment, S. cerevisiae, UniProt Q08215 1-309, looked up, not shown: MBP, N-terminal, kept) MAASEIMNNLPMHSLDSSLRDLLNDDLFIESDESTKSVNDQRSEVFQECVNLFIKRDIKDCLEKMSEVGFIDITVFKSNPMILDLFVSACDIMPSFTKLGLTLQSEILNIFTLDTPQCIETRKIILGDLSKLLVINKFFRCCIKVIQFNLTDHTEQEEKTLELESIMSDFIFVYITKMRTTIDVVGLQELIEIFIFQVKVKLHHKKPSPNMYWALCKTLPKLSPTLKGLYLSKDVSIEDAILNSIDNKIQKDKAKSKGKQRGVKQKIHHFHEPMLHNSSEEQVKVEDAFNQRTSTDSRLQSTGTAPRKK
2 | binds | MBP-Pex15 1-253 (domain or fragment, S. cerevisiae, UniProt Q08215 1-253, looked up, not shown: MBP, N-terminal, kept) MAASEIMNNLPMHSLDSSLRDLLNDDLFIESDESTKSVNDQRSEVFQECVNLFIKRDIKDCLEKMSEVGFIDITVFKSNPMILDLFVSACDIMPSFTKLGLTLQSEILNIFTLDTPQCIETRKIILGDLSKLLVINKFFRCCIKVIQFNLTDHTEQEEKTLELESIMSDFIFVYITKMRTTIDVVGLQELIEIFIFQVKVKLHHKKPSPNMYWALCKTLPKLSPTLKGLYLSKDVSIEDAILNSIDNKIQKDK

Molecular target: T2, Pex1-FLAG/His-Pex6 hexamer, wild type (S. cerevisiae, UniProt P24004 1-1043; P33760 1-1030)
T2 construct: Pex1, S. cerevisiae W303; Pex6, S. cerevisiae W303; Heterohexamer with alternating subunits; also called WT Pex1/Pex6; Pex1/Pex6; source: E. coli BL21*, co-expressed, purified (Ni-NTA, anti-FLAG, Superose6); copies: 3 + 3
T2 sequence (P24004 whole entry, chain 1 of 2): as the sequence (P24004 whole entry E798Q, one chain of several) above, with Q798E counted along it
T2 sequence (P33760 whole entry, chain 2 of 2): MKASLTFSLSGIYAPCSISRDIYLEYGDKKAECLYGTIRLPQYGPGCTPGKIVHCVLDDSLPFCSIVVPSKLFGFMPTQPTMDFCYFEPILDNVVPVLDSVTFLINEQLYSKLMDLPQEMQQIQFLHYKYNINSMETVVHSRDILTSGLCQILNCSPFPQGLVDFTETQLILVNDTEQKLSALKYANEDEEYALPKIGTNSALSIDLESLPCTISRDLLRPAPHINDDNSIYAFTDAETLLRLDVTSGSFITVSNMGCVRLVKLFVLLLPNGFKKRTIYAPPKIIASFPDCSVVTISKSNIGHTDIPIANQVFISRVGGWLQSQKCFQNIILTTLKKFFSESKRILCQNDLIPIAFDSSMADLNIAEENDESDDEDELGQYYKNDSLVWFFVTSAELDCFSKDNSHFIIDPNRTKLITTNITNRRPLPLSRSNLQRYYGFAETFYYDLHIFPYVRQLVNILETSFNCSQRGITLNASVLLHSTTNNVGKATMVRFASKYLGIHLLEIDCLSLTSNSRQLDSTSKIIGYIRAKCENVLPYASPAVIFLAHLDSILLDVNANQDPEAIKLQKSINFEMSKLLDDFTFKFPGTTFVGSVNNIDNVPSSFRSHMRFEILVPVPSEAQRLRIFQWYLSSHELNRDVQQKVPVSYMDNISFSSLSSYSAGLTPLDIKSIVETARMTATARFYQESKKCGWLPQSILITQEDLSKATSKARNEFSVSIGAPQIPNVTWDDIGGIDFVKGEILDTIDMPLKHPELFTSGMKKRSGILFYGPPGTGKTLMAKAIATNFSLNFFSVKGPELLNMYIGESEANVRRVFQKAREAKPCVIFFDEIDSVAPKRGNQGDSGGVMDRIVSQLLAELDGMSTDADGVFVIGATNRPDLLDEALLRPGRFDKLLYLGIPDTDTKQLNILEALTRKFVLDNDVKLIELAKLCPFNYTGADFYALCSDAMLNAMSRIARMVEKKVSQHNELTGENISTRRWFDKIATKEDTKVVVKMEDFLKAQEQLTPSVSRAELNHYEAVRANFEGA
Assay: inhibition of ATPase activity (ATP/NADH coupled enzyme assay); apparent KD from the concentration-dependent inhibition of the ATPase activity of 5 nM Pex1/Pex6 by titrated Pex15; 5 mM ATP, 2 uM BSA; n = 3 technical replicates
Details: both partners purified

Row | Kd | Binder
3 | 5.3 µM | Pex15 30-309 (domain or fragment, S. cerevisiae, UniProt Q08215 30-309, looked up, begins at E30 (primer 'Pex15 E30 forward', D1:p20); source: E. coli BL21*, purified (Ni-NTA, tag cleaved with PreScission protease, Superdex 200); not shown: His, C-terminal, cleaved) ESDESTKSVNDQRSEVFQECVNLFIKRDIKDCLEKMSEVGFIDITVFKSNPMILDLFVSACDIMPSFTKLGLTLQSEILNIFTLDTPQCIETRKIILGDLSKLLVINKFFRCCIKVIQFNLTDHTEQEEKTLELESIMSDFIFVYITKMRTTIDVVGLQELIEIFIFQVKVKLHHKKPSPNMYWALCKTLPKLSPTLKGLYLSKDVSIEDAILNSIDNKIQKDKAKSKGKQRGVKQKIHHFHEPMLHNSSEEQVKVEDAFNQRTSTDSRLQSTGTAPRKK
4 | 0.86 µM | Pex15 12-309 (domain or fragment, S. cerevisiae, UniProt Q08215 12-309, looked up, begins at M12 (primer 'Pex15 M12 forward', D1:p20); source: E. coli BL21*, purified (Ni-NTA, tag cleaved with PreScission protease, Superdex 200); not shown: His, C-terminal, cleaved) MHSLDSSLRDLLNDDLFIESDESTKSVNDQRSEVFQECVNLFIKRDIKDCLEKMSEVGFIDITVFKSNPMILDLFVSACDIMPSFTKLGLTLQSEILNIFTLDTPQCIETRKIILGDLSKLLVINKFFRCCIKVIQFNLTDHTEQEEKTLELESIMSDFIFVYITKMRTTIDVVGLQELIEIFIFQVKVKLHHKKPSPNMYWALCKTLPKLSPTLKGLYLSKDVSIEDAILNSIDNKIQKDKAKSKGKQRGVKQKIHHFHEPMLHNSSEEQVKVEDAFNQRTSTDSRLQSTGTAPRKK

Continued, binder first:

Row | Binder | Kd
5 | Pex15 43-309 (domain or fragment, S. cerevisiae, UniProt Q08215 43-309, looked up, begins at S43 (primer 'Pex15 S43 forward', D1:p20); source: E. coli BL21*, purified (Ni-NTA, tag cleaved with PreScission protease, Superdex 200); not shown: His, C-terminal, cleaved) SEVFQECVNLFIKRDIKDCLEKMSEVGFIDITVFKSNPMILDLFVSACDIMPSFTKLGLTLQSEILNIFTLDTPQCIETRKIILGDLSKLLVINKFFRCCIKVIQFNLTDHTEQEEKTLELESIMSDFIFVYITKMRTTIDVVGLQELIEIFIFQVKVKLHHKKPSPNMYWALCKTLPKLSPTLKGLYLSKDVSIEDAILNSIDNKIQKDKAKSKGKQRGVKQKIHHFHEPMLHNSSEEQVKVEDAFNQRTSTDSRLQSTGTAPRKK | 5.6 µM
6 | Pex15 1-309 L22A L23A (domain or fragment, S. cerevisiae, UniProt Q08215 1-309, looked up, also called Pex15 L22AL23A; source: E. coli BL21*, purified (Ni-NTA, tag cleaved with PreScission protease, Superdex 200); not shown: His, C-terminal, cleaved) MAASEIMNNLPMHSLDSSLRDAANDDLFIESDESTKSVNDQRSEVFQECVNLFIKRDIKDCLEKMSEVGFIDITVFKSNPMILDLFVSACDIMPSFTKLGLTLQSEILNIFTLDTPQCIETRKIILGDLSKLLVINKFFRCCIKVIQFNLTDHTEQEEKTLELESIMSDFIFVYITKMRTTIDVVGLQELIEIFIFQVKVKLHHKKPSPNMYWALCKTLPKLSPTLKGLYLSKDVSIEDAILNSIDNKIQKDKAKSKGKQRGVKQKIHHFHEPMLHNSSEEQVKVEDAFNQRTSTDSRLQSTGTAPRKK | 8.7 µM
